System: MS2 coat protein
Test: apparent KD of MS2 coat protein; designed switch direction (-1 OFF switch, 1 ON switch): -1; higher = weaker reporter binding
Summary of the method: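 The apparent KD reported per design is the median over clusters of curve fits to normalised cluster fluorescence. The RNA switches were transcribed on Illumina chips by stalled E. coli RNA polymerase. SNAP-549-labelled MS2 coat protein was titrated from 0.7 or 1.5 nM, doubling up to 3 µM, in Tris-HCl pH 7.5 buffer containing KCl, MgCl2, BSA, DTT, tRNA and Tween-20, with no input, 200 uM small-molecule ligand, or an oligonucleotide input.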

[1] = input ligand: microRNA oligo, concentration not stated
[2] = Eterna round: R95, input ligand: microRNA oligo, concentration not stated

Sequence	apparent KD of MS2 coat protein (input ligand: FMN 200 uM)	apparent KD of MS2 coat protein [1]	apparent KD of MS2 coat protein (input ligand: none)	apparent KD of MS2 coat protein (Eterna round: R95, input ligand: FMN 200 uM)	apparent KD of MS2 coat protein [2]	apparent KD of MS2 coat protein (Eterna round: R95, input ligand: none)
CAGUACUGAGGAUAUACAUGAGGAUCACCCAUGUGUUCCAGCUAGGAAUCUAGCAAAAGUAGAAGGCAGUACUG [salish99_ex3_r3_094x] (Eterna round: R96, puzzle: Exclusion 3)	727 nM	22.4 nM	25.1 nM			
AUAAAACAUGAGGAUCACCCAUGUCAGGAUAUACGACUCCAACCAAACUGCUUGGACCGUAGAAGGGACAAGGG [Exclusion 1 (MOD2 Esqu)] (Eterna round: R97, puzzle: Exclusion 1)	140 nM		277 nM			
AGCUGUGGCCGAGGAUAUCCACAUGAGGAUCACCCAUGUCGAUACGCCGUUAAAGGCGAUAUAAGGGAGAAGGCGGUCUCAGCA [Eli eng2 - 052] (Eterna round: R96, puzzle: Exclusion NG 2)	7.35 nM	6.69 nM	10.2 nM			
AAGAAACAUGAGGAUCACCCAUGUGAGGAUAUGAUCAAGAAAAGAAAAGAAAGAAGAGUCAGAAGGCACAAAGG [salish99-ex1_r3_065] (puzzle: Exclusion 1)				282 nM	291 nM	418 nM
GCGACAGCGGUUAGGAUAUAUGUUAGGACGUAGAUAUAGAAGGAACAUGAGGAUCACCCAUGUUUAAAAUGGGA [Eternabot (L1) Solution 71] (Eterna round: R97, puzzle: Brourd's mod of Exclusion 4)	69.5 nM		71.9 nM			
AACAUGUUAGGAUAUGGUCCUGUGCCACAUGGAGGUUUAGGUUAGAAGGGACAUGAGGAUCACCCAUGUUAAAU [Eternabot (L2) Solution 39] (Eterna round: R97, puzzle: Exclusion 4)	168 nM		183 nM			
CUGUACAUAGGAUAUAGUUGUUUUUACAUGAGGAUCACCCAUGUUACUCCUCUCUCUCUUCUAGAAGGAUGUUUCU [JR_E5_Sub008] (puzzle: Exclusion 5)					63.8 nM	
GUACUGACAGGAUAUACAUGAGGAUCACCCAUGUGCCCUUAAAGAUGCAAAGCAUCAAGUAGAAGGGUCUGUAC [Omei Ex3 Model Bachelor's Dilema v21] (Eterna round: R97, puzzle: Exclusion 3)	53 nM		40.5 nM			
UUGGUUGUGGUAGGAUAUCCGUUGGAAACCGUCGGAGAAGGACCACAGUCACUGGGUCCUUGUCUGGUGGACUGGAAUCACCAU [pwkr exNG1 F6.15] (Eterna round: R96, puzzle: Exclusion NG 1)	153 nM	172 nM	184 nM			
ACUCCUCCUGUUAGGAUAUGCAUCGGGCUUCCGCAGCAGAAGGAACAUGAGGAUCACCCAUGUCAAAUAAAAUC [Inxebexe] (Eterna round: R96, puzzle: Brourd's mod of Exclusion 4)	153 nM	20.7 nM	26.9 nM			
CAGUACUGAGGAUAUACAUGAGGAUCACCCAUGUGUUCCAGCUAGGAAUCUAGCAAAAGUAGAAGGCAGUACUG [salish99_ex3_r3_094x] (puzzle: Exclusion 3)					25.3 nM	
GAAUAGAGAGGAUAUGCAAUGAAGGUAGUACGAUAUGUCUGACAUGAGGAUCACCCAUGUAGAAGGCUCAGAUC [EX2 #9] (Eterna round: R97, puzzle: Exclusion 2)	63.8 nM		29.8 nM			
AAUACAAGCUAUUGAUCCCACAUGAGGAUCACCCAUGUAUAUGCCCGUGACACGUGCAUGACGAUAGCUCGUCUUAU [Sensor-V1 #60] (Eterna round: R97, puzzle: Sensor, turn-off variant 1)	85.8 nM		102 nM			
AUUGAAUGAAACCUCUAAUACAUGAGGAUCACCCAUGUUAUCGAGGAUAUGCAGAAUAGAUUAGAGCAGAAGGCGAAGUAAUAU [JR_ExcNG3_Sub024] (Eterna round: R96, puzzle: Exclusion NG 3)	17.7 nM	9.67 nM	12.8 nM			

Reference: the supplement of paper PMC9170038
